Nine molecules from patent US20150344540A1, “NOVEL GLP-1 RECEPTOR AGONISTS WITH CHOLESTEROL EFFLUX ACTIVITY” (NOVO NORDISK A/S, priority 2012, published 2015) can be followed below.

The target in this assay is human GLP-1 receptor (human, UniProt P43220). The assay is described as follows: cell-based or functional assay.

Where no end group is shown, it is not given here. [ ]: non-standard residue; d: D form. The star is where a group is joined. Desaminohistidyl = O=C(CCc1c[nH]cn1)*; Aib = CC(C)(N)C(=O)O

B1: [Aib8,Val25,Gln27,Asn34,Lys35,Aib36,Ala37]-GLP-1-(7-37)-peptidyl-Glu-Phe-Leu amide (peptide)
peptide: H[Aib]EGTFTSDVSSYLEGQAVKQFIAWLVNK[Aib]AEFL-NH2
modifications: N-terminus assumed
SMILES: CC[C@H](C)[C@H](NC(=O)[C@H](Cc1ccccc1)NC(=O)[C@H](CCC(N)=O)NC(=O)[C@H](CCCCN)NC(=O)[C@@H](NC(=O)[C@H](C)NC(=O)[C@H](CCC(N)=O)NC(=O)CNC(=O)[C@H](CCC(=O)O)NC(=O)[C@H](CC(C)C)NC(=O)[C@H](Cc1ccc(O)cc1)NC(=O)[C@H](CO)NC(=O)[C@H](CO)NC(=O)[C@@H](NC(=O)[C@H](CC(=O)O)NC(=O)[C@H](CO)NC(=O)[C@@H](NC(=O)[C@H](Cc1ccccc1)NC(=O)[C@@H](NC(=O)CNC(=O)[C@H](CCC(=O)O)NC(=O)C(C)(C)NC(=O)[C@@H](N)Cc1c[nH]cn1)[C@@H](C)O)[C@@H](C)O)C(C)C)C(C)C)C(=O)N[C@@H](C)C(=O)N[C@@H](Cc1c[nH]c2ccccc12)C(=O)N[C@@H](CC(C)C)C(=O)N[C@H](C(=O)N[C@@H](CC(N)=O)C(=O)N[C@@H](CCCCN)C(=O)NC(C)(C)C(=O)N[C@@H](C)C(=O)N[C@@H](CCC(=O)O)C(=O)N[C@@H](Cc1ccccc1)C(=O)N[C@@H](CC(C)C)C(N)=O)C(C)C
For the molecule B1, the “CRE luciferase EC50, 0% HSA” value was found to be 0.235 nM and the “CRE luciferase EC50, 1% HSA” value amounted to 0.109 nM.

B2: [Aib8,Val25,Gln27,Glu34,Lys35,Aib36,Ala37]-GLP-1-(7-37)-peptidyl-Glu-Phe-Leu amide (peptide)
peptide: H[Aib]EGTFTSDVSSYLEGQAVKQFIAWLVEK[Aib]AEFL-NH2
modifications: N-terminus assumed
SMILES: CC[C@H](C)[C@H](NC(=O)[C@H](Cc1ccccc1)NC(=O)[C@H](CCC(N)=O)NC(=O)[C@H](CCCCN)NC(=O)[C@@H](NC(=O)[C@H](C)NC(=O)[C@H](CCC(N)=O)NC(=O)CNC(=O)[C@H](CCC(=O)O)NC(=O)[C@H](CC(C)C)NC(=O)[C@H](Cc1ccc(O)cc1)NC(=O)[C@H](CO)NC(=O)[C@H](CO)NC(=O)[C@@H](NC(=O)[C@H](CC(=O)O)NC(=O)[C@H](CO)NC(=O)[C@@H](NC(=O)[C@H](Cc1ccccc1)NC(=O)[C@@H](NC(=O)CNC(=O)[C@H](CCC(=O)O)NC(=O)C(C)(C)NC(=O)[C@@H](N)Cc1c[nH]cn1)[C@@H](C)O)[C@@H](C)O)C(C)C)C(C)C)C(=O)N[C@@H](C)C(=O)N[C@@H](Cc1c[nH]c2ccccc12)C(=O)N[C@@H](CC(C)C)C(=O)N[C@H](C(=O)N[C@@H](CCC(=O)O)C(=O)N[C@@H](CCCCN)C(=O)NC(C)(C)C(=O)N[C@@H](C)C(=O)N[C@@H](CCC(=O)O)C(=O)N[C@@H](Cc1ccccc1)C(=O)N[C@@H](CC(C)C)C(N)=O)C(C)C
In the case of B2, the “CRE luciferase EC50, 0% HSA” value came to 0.191 nM and the “CRE luciferase EC50, 1% HSA” value came to 0.069 nM.

B3: [Gly8,Glu23,Val25,Glu34,Lys35,Val36,Lys37]-GLP-1-(7-37)-peptidyl-Glu-His-Leu amide (peptide)
peptide: HGEGTFTSDVSSYLEGEAVKEFIAWLVEKVKEHL-NH2
Take B3: the “CRE luciferase EC50, 0% HSA” value amounted to 0.337 nM and the “CRE luciferase EC50, 1% HSA” value worked out at 0.096 nM.

B4: [Gly8,Glu23,Val25,Glu34,Lys35,Val36,Lys37]-GLP-1-(7-37)-peptidyl-Glu-Phe-Leu amide (peptide)
peptide: HGEGTFTSDVSSYLEGEAVKEFIAWLVEKVKEFL-NH2
As to B4, the “CRE luciferase EC50, 0% HSA” value turned out to be 6.08 nM and the “CRE luciferase EC50, 1% HSA” value was found to be 1.38 nM.

B5: [Aib8,Glu23,Val25,Glu34,Lys35,Val36,Lys37]-GLP-1-(7-37)-peptidyl-Glu-His-Leu amide (peptide)
peptide: H[Aib]EGTFTSDVSSYLEGEAVKEFIAWLVEKVKEHL-NH2
modifications: N-terminus assumed
SMILES: CC[C@H](C)[C@H](NC(=O)[C@H](Cc1ccccc1)NC(=O)[C@H](CCC(=O)O)NC(=O)[C@H](CCCCN)NC(=O)[C@@H](NC(=O)[C@H](C)NC(=O)[C@H](CCC(=O)O)NC(=O)CNC(=O)[C@H](CCC(=O)O)NC(=O)[C@H](CC(C)C)NC(=O)[C@H](Cc1ccc(O)cc1)NC(=O)[C@H](CO)NC(=O)[C@H](CO)NC(=O)[C@@H](NC(=O)[C@H](CC(=O)O)NC(=O)[C@H](CO)NC(=O)[C@@H](NC(=O)[C@H](Cc1ccccc1)NC(=O)[C@@H](NC(=O)CNC(=O)[C@H](CCC(=O)O)NC(=O)C(C)(C)NC(=O)[C@@H](N)Cc1c[nH]cn1)[C@@H](C)O)[C@@H](C)O)C(C)C)C(C)C)C(=O)N[C@@H](C)C(=O)N[C@@H](Cc1c[nH]c2ccccc12)C(=O)N[C@@H](CC(C)C)C(=O)N[C@H](C(=O)N[C@@H](CCC(=O)O)C(=O)N[C@@H](CCCCN)C(=O)N[C@H](C(=O)N[C@@H](CCCCN)C(=O)N[C@@H](CCC(=O)O)C(=O)N[C@@H](Cc1c[nH]cn1)C(=O)N[C@@H](CC(C)C)C(N)=O)C(C)C)C(C)C
On to B5, for which the “CRE luciferase EC50, 0% HSA” value came to 0.089 nM and the “CRE luciferase EC50, 1% HSA” value amounted to 0.116 nM.

B6: [Aib8,Glu23,Val25,Gln30,Leu33,Glu34,Lys35,Aib36,Lys37]-GLP-1-(7-37)-peptidyl-Glu-Phe-Leu amide (peptide)
peptide: H[Aib]EGTFTSDVSSYLEGEAVKEFIQWLLEK[Aib]KEFL-NH2
modifications: N-terminus assumed
SMILES: CC[C@H](C)[C@H](NC(=O)[C@H](Cc1ccccc1)NC(=O)[C@H](CCC(=O)O)NC(=O)[C@H](CCCCN)NC(=O)[C@@H](NC(=O)[C@H](C)NC(=O)[C@H](CCC(=O)O)NC(=O)CNC(=O)[C@H](CCC(=O)O)NC(=O)[C@H](CC(C)C)NC(=O)[C@H](Cc1ccc(O)cc1)NC(=O)[C@H](CO)NC(=O)[C@H](CO)NC(=O)[C@@H](NC(=O)[C@H](CC(=O)O)NC(=O)[C@H](CO)NC(=O)[C@@H](NC(=O)[C@H](Cc1ccccc1)NC(=O)[C@@H](NC(=O)CNC(=O)[C@H](CCC(=O)O)NC(=O)C(C)(C)NC(=O)[C@@H](N)Cc1c[nH]cn1)[C@@H](C)O)[C@@H](C)O)C(C)C)C(C)C)C(=O)N[C@@H](CCC(N)=O)C(=O)N[C@@H](Cc1c[nH]c2ccccc12)C(=O)N[C@@H](CC(C)C)C(=O)N[C@@H](CC(C)C)C(=O)N[C@@H](CCC(=O)O)C(=O)N[C@@H](CCCCN)C(=O)NC(C)(C)C(=O)N[C@@H](CCCCN)C(=O)N[C@@H](CCC(=O)O)C(=O)N[C@@H](Cc1ccccc1)C(=O)N[C@@H](CC(C)C)C(N)=O
As to B6, the “CRE luciferase EC50, 0% HSA” value turned out to be 0.238 nM and the “CRE luciferase EC50, 1% HSA” value is 0.061 nM.

B7: [Aib8,Glu23,Lys24,Val25,Glu30,His31,Glu34,Lys35,Aib36,Lys37]-GLP-1-(7-37)-peptidyl-Glu-Phe-Leu amide (peptide)
peptide: H[Aib]EGTFTSDVSSYLEGEKVKEFIEHLVEK[Aib]KEFL-NH2
modifications: N-terminus assumed
SMILES: CC[C@H](C)[C@H](NC(=O)[C@H](Cc1ccccc1)NC(=O)[C@H](CCC(=O)O)NC(=O)[C@H](CCCCN)NC(=O)[C@@H](NC(=O)[C@H](CCCCN)NC(=O)[C@H](CCC(=O)O)NC(=O)CNC(=O)[C@H](CCC(=O)O)NC(=O)[C@H](CC(C)C)NC(=O)[C@H](Cc1ccc(O)cc1)NC(=O)[C@H](CO)NC(=O)[C@H](CO)NC(=O)[C@@H](NC(=O)[C@H](CC(=O)O)NC(=O)[C@H](CO)NC(=O)[C@@H](NC(=O)[C@H](Cc1ccccc1)NC(=O)[C@@H](NC(=O)CNC(=O)[C@H](CCC(=O)O)NC(=O)C(C)(C)NC(=O)[C@@H](N)Cc1c[nH]cn1)[C@@H](C)O)[C@@H](C)O)C(C)C)C(C)C)C(=O)N[C@@H](CCC(=O)O)C(=O)N[C@@H](Cc1c[nH]cn1)C(=O)N[C@@H](CC(C)C)C(=O)N[C@H](C(=O)N[C@@H](CCC(=O)O)C(=O)N[C@@H](CCCCN)C(=O)NC(C)(C)C(=O)N[C@@H](CCCCN)C(=O)N[C@@H](CCC(=O)O)C(=O)N[C@@H](Cc1ccccc1)C(=O)N[C@@H](CC(C)C)C(N)=O)C(C)C
Regarding B7, the “CRE luciferase EC50, 0% HSA” value is 1.84 nM and the “CRE luciferase EC50, 1% HSA” value worked out at 0.593 nM.

B8: [Aib8,Val25,Asn34,Lys35,Aib36,Ala37]-GLP-1-(7-37)-peptidyl-Glu-Phe-Leu amide (peptide)
peptide: H[Aib]EGTFTSDVSSYLEGQAVKEFIAWLVNK[Aib]AEFL-NH2
modifications: N-terminus assumed
SMILES: CC[C@H](C)[C@H](NC(=O)[C@H](Cc1ccccc1)NC(=O)[C@H](CCC(=O)O)NC(=O)[C@H](CCCCN)NC(=O)[C@@H](NC(=O)[C@H](C)NC(=O)[C@H](CCC(N)=O)NC(=O)CNC(=O)[C@H](CCC(=O)O)NC(=O)[C@H](CC(C)C)NC(=O)[C@H](Cc1ccc(O)cc1)NC(=O)[C@H](CO)NC(=O)[C@H](CO)NC(=O)[C@@H](NC(=O)[C@H](CC(=O)O)NC(=O)[C@H](CO)NC(=O)[C@@H](NC(=O)[C@H](Cc1ccccc1)NC(=O)[C@@H](NC(=O)CNC(=O)[C@H](CCC(=O)O)NC(=O)C(C)(C)NC(=O)[C@@H](N)Cc1c[nH]cn1)[C@@H](C)O)[C@@H](C)O)C(C)C)C(C)C)C(=O)N[C@@H](C)C(=O)N[C@@H](Cc1c[nH]c2ccccc12)C(=O)N[C@@H](CC(C)C)C(=O)N[C@H](C(=O)N[C@@H](CC(N)=O)C(=O)N[C@@H](CCCCN)C(=O)NC(C)(C)C(=O)N[C@@H](C)C(=O)N[C@@H](CCC(=O)O)C(=O)N[C@@H](Cc1ccccc1)C(=O)N[C@@H](CC(C)C)C(N)=O)C(C)C
Take B8: the “CRE luciferase EC50, 0% HSA” value was determined as 0.108 nM and the “CRE luciferase EC50, 1% HSA” value worked out at 0.062 nM.

B9: [desamino-His7,Aib8,Glu23,Val25,Glu34,Lys35,Val36,Lys37]-GLP-1-(7-37)-peptidyl-Glu-Phe-Leu amide (peptide)
peptide: [Desaminohistidyl][Aib]EGTFTSDVSSYLEGEAVKEFIAWLVEKVKEFL-NH2
SMILES: CC[C@H](C)[C@H](NC(=O)[C@H](Cc1ccccc1)NC(=O)[C@H](CCC(=O)O)NC(=O)[C@H](CCCCN)NC(=O)[C@@H](NC(=O)[C@H](C)NC(=O)[C@H](CCC(=O)O)NC(=O)CNC(=O)[C@H](CCC(=O)O)NC(=O)[C@H](CC(C)C)NC(=O)[C@H](Cc1ccc(O)cc1)NC(=O)[C@H](CO)NC(=O)[C@H](CO)NC(=O)[C@@H](NC(=O)[C@H](CC(=O)O)NC(=O)[C@H](CO)NC(=O)[C@@H](NC(=O)[C@H](Cc1ccccc1)NC(=O)[C@@H](NC(=O)CNC(=O)[C@H](CCC(=O)O)NC(=O)C(C)(C)NC(=O)CCc1c[nH]cn1)[C@@H](C)O)[C@@H](C)O)C(C)C)C(C)C)C(=O)N[C@@H](C)C(=O)N[C@@H](Cc1c[nH]c2ccccc12)C(=O)N[C@@H](CC(C)C)C(=O)N[C@H](C(=O)N[C@@H](CCC(=O)O)C(=O)N[C@@H](CCCCN)C(=O)N[C@H](C(=O)N[C@@H](CCCCN)C(=O)N[C@@H](CCC(=O)O)C(=O)N[C@@H](Cc1ccccc1)C(=O)N[C@@H](CC(C)C)C(N)=O)C(C)C)C(C)C
As for B9, the “CRE luciferase EC50, 0% HSA” value was 0.886 nM and the “CRE luciferase EC50, 1% HSA” value turned out to be 0.242 nM.
